T1: IRTA3 expressed on transfected CHO cells (full-length transmembrane form with N-terminal epitope tag) (human, UniProt Q96P31 18-734)
T1 construct: also called CHO line expressing IRTA3
T1 sequence: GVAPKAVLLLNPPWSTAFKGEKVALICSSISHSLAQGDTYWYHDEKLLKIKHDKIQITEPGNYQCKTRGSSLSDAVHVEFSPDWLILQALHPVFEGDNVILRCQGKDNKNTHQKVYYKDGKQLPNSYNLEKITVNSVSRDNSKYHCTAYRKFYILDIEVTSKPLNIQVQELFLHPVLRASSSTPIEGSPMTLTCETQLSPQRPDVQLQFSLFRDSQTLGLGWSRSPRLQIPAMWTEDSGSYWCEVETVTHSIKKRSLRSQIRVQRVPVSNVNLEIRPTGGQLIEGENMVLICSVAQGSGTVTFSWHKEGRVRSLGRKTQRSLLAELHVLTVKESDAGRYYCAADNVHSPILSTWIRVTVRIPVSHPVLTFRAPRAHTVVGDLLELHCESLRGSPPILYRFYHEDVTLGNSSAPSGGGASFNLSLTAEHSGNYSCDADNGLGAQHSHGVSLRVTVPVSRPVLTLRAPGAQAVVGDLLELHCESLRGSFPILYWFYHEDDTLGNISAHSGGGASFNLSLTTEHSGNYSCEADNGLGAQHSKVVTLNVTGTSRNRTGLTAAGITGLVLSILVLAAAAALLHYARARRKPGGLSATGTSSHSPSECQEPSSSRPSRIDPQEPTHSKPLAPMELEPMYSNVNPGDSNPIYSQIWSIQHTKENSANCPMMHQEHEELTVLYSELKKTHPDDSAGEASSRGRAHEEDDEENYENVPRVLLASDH

T2: IRTA1 expressed on transfected CHO cells (full-length transmembrane form with N-terminal epitope tag) (human, UniProt Q96PJ5 20-515)
T2 construct: also called CHO line expressing IRTA1
T2 sequence: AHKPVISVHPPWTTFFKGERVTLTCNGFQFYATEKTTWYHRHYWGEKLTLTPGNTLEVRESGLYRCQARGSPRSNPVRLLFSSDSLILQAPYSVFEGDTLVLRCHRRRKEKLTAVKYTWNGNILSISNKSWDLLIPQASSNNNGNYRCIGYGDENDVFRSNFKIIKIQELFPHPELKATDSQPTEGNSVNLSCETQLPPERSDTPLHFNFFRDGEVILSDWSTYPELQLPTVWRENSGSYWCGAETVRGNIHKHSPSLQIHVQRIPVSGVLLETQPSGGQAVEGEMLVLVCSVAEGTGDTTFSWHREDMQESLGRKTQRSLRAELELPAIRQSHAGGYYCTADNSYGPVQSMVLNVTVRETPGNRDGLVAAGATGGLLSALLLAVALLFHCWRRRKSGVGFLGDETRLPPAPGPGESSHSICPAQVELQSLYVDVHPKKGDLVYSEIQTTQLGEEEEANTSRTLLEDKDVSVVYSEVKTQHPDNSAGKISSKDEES

T3: IRTA2 expressed on transfected CHO cells (full-length transmembrane form with N-terminal epitope tag) (human, UniProt Q96RD9 16-977)
T3 construct: also called CHO line expressing IRTA2
T3 chain: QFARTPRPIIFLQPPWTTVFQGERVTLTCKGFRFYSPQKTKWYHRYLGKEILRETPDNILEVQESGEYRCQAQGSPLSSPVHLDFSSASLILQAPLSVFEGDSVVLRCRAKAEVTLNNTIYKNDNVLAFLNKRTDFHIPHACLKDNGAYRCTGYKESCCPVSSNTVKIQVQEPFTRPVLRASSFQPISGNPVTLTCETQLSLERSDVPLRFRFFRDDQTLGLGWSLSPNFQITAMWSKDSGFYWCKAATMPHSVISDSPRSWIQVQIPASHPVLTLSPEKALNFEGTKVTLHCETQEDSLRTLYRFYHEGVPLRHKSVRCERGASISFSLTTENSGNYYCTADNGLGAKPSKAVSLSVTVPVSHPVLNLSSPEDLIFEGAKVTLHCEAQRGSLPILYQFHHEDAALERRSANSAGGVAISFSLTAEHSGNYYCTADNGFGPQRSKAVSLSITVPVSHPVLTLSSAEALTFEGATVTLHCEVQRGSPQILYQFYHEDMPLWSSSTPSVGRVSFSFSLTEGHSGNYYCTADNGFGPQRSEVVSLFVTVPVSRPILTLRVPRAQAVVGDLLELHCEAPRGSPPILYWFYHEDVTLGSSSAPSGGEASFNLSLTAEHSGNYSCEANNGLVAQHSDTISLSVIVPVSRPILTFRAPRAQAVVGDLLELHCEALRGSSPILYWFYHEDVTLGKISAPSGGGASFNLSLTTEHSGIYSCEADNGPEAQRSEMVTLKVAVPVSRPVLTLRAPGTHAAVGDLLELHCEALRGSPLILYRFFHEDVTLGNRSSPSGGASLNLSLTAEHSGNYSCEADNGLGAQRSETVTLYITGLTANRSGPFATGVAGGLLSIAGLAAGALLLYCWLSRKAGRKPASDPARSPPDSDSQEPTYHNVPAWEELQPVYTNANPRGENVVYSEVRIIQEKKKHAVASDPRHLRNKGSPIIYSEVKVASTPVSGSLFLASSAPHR

T4: IRTA4 expressed on transfected CHO cells (full-length transmembrane form with N-terminal epitope tag) (human, UniProt Q96LA5 20-508)
T4 construct: also called CHO line expressing IRTA4
T4 sequence: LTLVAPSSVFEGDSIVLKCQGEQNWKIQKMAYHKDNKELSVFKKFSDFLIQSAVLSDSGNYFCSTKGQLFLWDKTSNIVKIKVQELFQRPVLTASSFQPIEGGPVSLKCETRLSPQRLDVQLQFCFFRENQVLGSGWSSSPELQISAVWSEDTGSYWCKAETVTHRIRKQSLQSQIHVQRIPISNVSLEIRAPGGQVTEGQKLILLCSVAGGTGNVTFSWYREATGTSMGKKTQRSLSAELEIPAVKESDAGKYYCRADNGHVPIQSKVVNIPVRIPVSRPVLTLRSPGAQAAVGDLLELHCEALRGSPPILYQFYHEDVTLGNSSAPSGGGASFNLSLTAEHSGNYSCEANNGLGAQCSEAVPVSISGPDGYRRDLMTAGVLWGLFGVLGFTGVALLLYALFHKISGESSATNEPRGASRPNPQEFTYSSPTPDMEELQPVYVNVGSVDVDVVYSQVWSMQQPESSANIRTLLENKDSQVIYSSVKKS

T5: IRTA5 protein as naturally expressed on human peripheral blood B lymphocytes and B cell tumor lines (human, UniProt Q96LA6 17-429)
T5 construct: Endogenous protein on untransfected human cells; also called IRTA-5 on CD19+ B cells, Daudi, Ramos, SU-DHL-4
T5 sequence: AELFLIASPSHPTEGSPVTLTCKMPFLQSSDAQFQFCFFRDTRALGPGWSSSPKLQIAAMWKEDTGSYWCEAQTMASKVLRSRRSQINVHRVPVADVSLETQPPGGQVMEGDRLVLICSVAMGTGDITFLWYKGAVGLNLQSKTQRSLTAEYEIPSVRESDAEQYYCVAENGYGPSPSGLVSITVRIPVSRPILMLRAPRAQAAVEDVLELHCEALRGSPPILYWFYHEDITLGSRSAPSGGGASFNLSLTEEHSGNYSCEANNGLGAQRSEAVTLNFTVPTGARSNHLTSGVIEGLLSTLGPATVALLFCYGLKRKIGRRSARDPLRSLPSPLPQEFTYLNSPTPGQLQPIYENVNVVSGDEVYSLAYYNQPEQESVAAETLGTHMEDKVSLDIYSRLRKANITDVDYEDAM

T6: IRTA5 expressed on transfected CHO cells (full-length transmembrane form with N-terminal epitope tag) (human, UniProt Q96LA6 17-429)
T6 construct: Neither the signal peptide limits nor the tag is stated; also called CHO line transfected with IRTA5; human IRTA-5
T6 sequence: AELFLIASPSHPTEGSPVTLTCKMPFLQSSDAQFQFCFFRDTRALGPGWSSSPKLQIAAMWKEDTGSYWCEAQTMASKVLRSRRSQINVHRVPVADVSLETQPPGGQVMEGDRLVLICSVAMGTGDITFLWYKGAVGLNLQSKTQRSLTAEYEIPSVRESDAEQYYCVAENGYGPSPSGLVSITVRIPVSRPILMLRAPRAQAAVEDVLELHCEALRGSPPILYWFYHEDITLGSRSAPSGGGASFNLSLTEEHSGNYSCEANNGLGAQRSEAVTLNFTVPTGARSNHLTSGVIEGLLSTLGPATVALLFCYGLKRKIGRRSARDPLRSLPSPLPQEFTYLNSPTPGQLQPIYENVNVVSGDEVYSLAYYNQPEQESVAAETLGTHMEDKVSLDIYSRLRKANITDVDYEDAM


What was measured:
[1] = target: T1, IRTA3 expressed on transfected CHO …; experiment: flow cytometry on transfected CHO cells
Excerpt: (§1) Chinese hamster ovary (CHO) cell lines that express one of each of the five IRTA proteins at the cell surface were developed and used to determine the specificity of the IRTA5 HuMAbs by flow cytometry. CHO cells were transfected with expression plasmids containing full length cDNA encoding transmembrane forms of IRTA1, IRTA2, IRTA3, IRTA4, or IRTA5. In addition, the transfected proteins contained an epitope tag at the N-terminus for detection by an antibody specific for the epitope. Binding of the seven anti-IRTA5 HuMAbs was assessed by incubating the transfected cells with each of the IRTA5 Abs at a concentration of 10 μg/ml. The cells were washed and binding was detected with a FITC-labeled anti-human IgG Ab. A murine anti-epitope tag Ab, followed by labeled anti-murine IgG, was used as the positive control. Non-specific human and murine Abs were used as negative controls. The results are depicted in FIG. 9. The IRTA5 HuMAbs bound to the CHO line transfected with IRTA5 but not to CHO lines expressing IRTA1, 2, or 4 as measured by the mean fluorescent intensity (MFI) of staining.

[2] = target: T2, IRTA1 expressed on transfected CHO …; experiment: flow cytometry on IRTA1-CHO cells, FITC-labeled anti-human IgG
Excerpt: as §1

[3] = target: T3, IRTA2 expressed on transfected CHO …; experiment: flow cytometry on IRTA2-CHO cells, FITC-labeled anti-human IgG
Excerpt: as §1

[4] = target: T4, IRTA4 expressed on transfected CHO …; experiment: flow cytometry on IRTA4-CHO cells, FITC-labeled anti-human IgG
Excerpt: as §1

[5] = target: T7, purified recombinant human IRTA5 fusion protein (human); experiment: Biacore SPR; IRTA5 fusion protein amine-coupled to CM5 chip, antibody flowed at 267 nM, 1:1 Langmuir fit
T7 construct: Amine-coupled to a CM5 chip in the Biacore kinetics; also called recombinant IRTA5 fusion protein
Procedure: Anti-IRTA5 antibodies were characterized for affinities and binding kinetics by Biacore analysis (Biacore AB, Uppsala, Sweden). Purified recombinant human IRTA5 fusion protein was covalently linked to a CM5 chip (carboxy methyl dextran coated chip) via primary amines, using standard amine coupling chemistry and kit provided by Biacore. Binding was measured by flowing the antibodies in HBS EP buffer (provided by BIAcore AB) at a concentration of 267 nM at a flow rate of 50 μl/min. The antigen-ssociation antibodies association kinetics was followed for 3 minutes and the dissociation kinetics was followed for 7 minutes. The association and dissociation curves were fit to a 1:1 Langmuir binding model using BlAevaluation software (Biacore AB). To minimize the effects of avidity in the estimation of the binding constants, only the initial segment of data coressponding to association and dissociation phases were used for fitting.

[6] = target: T5, IRTA5 protein as naturally expressed on …; experiment: two-colour flow cytometry on human PBMC: biotinylated antibody plus FITC-streptavidin (FL1) against PE anti-CD19 (FL2)
Procedure: CD19 is a cell surface marker that can be used to distinguish peripheral blood B lymphocytes. Human peripheral blood mononuclear cells were incubated with biotinylated 2G5, biotinylated 7G8, or an isotype control biotinylated human Ab. Cells were washed and were incubated with FITC-labeled streptavidin together with a phycoerythrin-labeled anti-CD19 antibody. Cells were washed and analyzed by flow cytometry. The results are depicted in FIG. 10A. Lymphocytes were gated as black “dots” and monocytes were gated as grey “dots”. Wavelengths were selected to screen for FITC (FL 1) and phycoerythrin (FL2) signaling. […] 2G5+ or 7G8+ cells (ordinate) were also predominantly CD19+, localizing to the double-positive, upper right quadrant.

[7] = target: T6, IRTA5 expressed on transfected CHO …; experiment: flow cytometry on IRTA5-CHO cells, antibody at 10 µg/ml, FITC-labeled anti-human IgG; the log y axis has no label on the sheet (MFI per the text)
Excerpt: as §1

[8] = target: T5, IRTA5 protein as naturally expressed on …; experiment: flow cytometry on Daudi and Ramos cells, PE anti-human secondary antibody
Procedure: The cell lines were incubated with each of the IRTA5 HuMAbs or a control human antibody, washed and detected by a phycoerythrin-labeled anti-human secondary antibody. […] The remaining 6 IRTA5 HuMAbs show a similar binding pattern (data not shown).

| binding result [1] | binding result [2] | binding result [3] | binding result [4] | Kd [5] [nM] | koff [5] [s⁻¹] | kon [5] [M⁻¹ s⁻¹] | binding result [6] | binding result [7] | binding result [8] | Binder |
| --- | --- | --- | --- | --- | --- | --- | --- | --- | --- | --- |
| no binding | no binding (tested: 10 µg/ml) | no binding (tested: 10 µg/ml) | no binding (tested: 10 µg/ml) | 16.8 | 0.00121 | 72000 | binds | binds | – | human monoclonal antibody 7G8 (antibody, V domains shown, Fully human IgG with kappa light chain from an HCo7 HuMab Mouse hybridoma; also called IRTA5 HuMAb 7G8; biotinylated 7G8) VH: DVHLVQSGGGLVHPGGSLRLSCAGSGFTFSTYTMHWIRQAPGKDLEWVSAIGTGGGTDYADSVKGRFTISRDNAKNSLYLQMNSLRAEDMAVYYCAREVYWYFDLWGRGTLVTVSS VL: not shown |
| no binding | no binding (tested: 10 µg/ml) | no binding (tested: 10 µg/ml) | no binding (tested: 10 µg/ml) | 0.028 | 4.3e-06 | 152000 | binds | binds | – | human monoclonal antibody 2G5 (antibody, V domains shown, Fully human IgG with kappa light chain from an HCo7 HuMab Mouse hybridoma; also called IRTA5 HuMAb 2G5; biotinylated 2G5) VH: QVQLVESGGGVVQPGRSLRLSCAASGFTFSDYGMHWVRQAPGKGLEWVAVIWYDGNNKYYADSVKGRFTISRDNSKNTLYLQMNSLRAEDTAVYYCARDWGRAFDIWGQGTMVTVSS VL: EIVLTQSPATLSLSPGERATLSCRASQSVSSYLAWYQQKPGQAPRLLIYDASNRATGIPARFSGSGSGTDFTLTISSLEPEDFALYYCQQLNNWPPYTFGQGTKLEIK |
| no binding | no binding (tested: 10 µg/ml) | no binding (tested: 10 µg/ml) | no binding (tested: 10 µg/ml) | 0.035 | 8.7e-06 | 252000 | – | binds | binds | human monoclonal antibody 5A2 (antibody, V domains shown, Fully human IgG with kappa light chain from an HCo7 HuMab Mouse hybridoma) VH: QVQVVESGGGVVQPGRSLRLSCAASGFTFSNYGMHWVRQAPGKGLEWVAGIWYDGSNKYYADSVKGRFTISRDNSKNTLYLQMNSLRAEDTAVYYCARESPNFDYWGQGTLVTVSS VL: EIVLTQSPATLSLSPGERATLSCRASQSVSSYLAWYQQKPGQAPRLLIYDASNRATGIPARFSGSGSGTDFTLTISSLEPEDFAVYYCQQRNNWPPWTFGQGTKVEIK |

— patent US20050266008A1 (Bristol-Myers Squibb, published 2005)
